Reference: patent publication US20170342349A1, “STABILIZED ENZYME COMPOSITIONS” (NOVOZYMES A/S, priority 2014, published 2017)
Positions count from the first letter of the chain named. In names and notes the source's numbering stands. Values belong to the molecule of their own block, whether it stands above or below them.

Key:
Assay type in all cases: biochemical
[1] = Inhibitor binding assay of SEQ ID NO 3 variants, Inhibitor 1, in Model B detergent; settings: in Model B relative to SEQ ID NO 3; relative Ki, IF>1.0 = lower Ki
[2] = Inhibitor binding assay of SEQ ID NO 3 variants, Inhibitor 2, in Model B detergent; settings: in Model B relative to SEQ ID NO 3; relative Ki, IF>1.0 = lower Ki
Source text: (§1) Where E is the protease, I is the inhibitor and EI is the protease-inhibitor complex. […] The concentration of enzyme-inhibitor in the detergent solution is then given by:
(§2) where Etot is the total protease concentration ([Etot]=[E]+[EI]), Itot is the total inhibitor concentration ([Itot]=[I]+[EI]), and Ki is the equilibrium binding constant for the reaction. The measured slopes V are given by:
(§3) where V0 is the slope without inhibitor added. To calculate apparent binding constant Ki least square fitting of measured slopes at various inhibitor concentrations to this equation is performed with Ki and V0 as variables.
Purified protease variants are pre-diluted to approximately 0.2 mg/ml in dilution buffer. The experimental conditions are described in Table 5. 40 μl diluted protease is then mixed with 40 μl inhibitor solution Inhibitor 1: (Cbz-Gly-Ala-NHCH(CH2C6H4pOH)C(OH)(SO3Na)—H, wherein Cbz is benzyloxycarbonyl) or 40 μl Inhibitor 2: (4-FPBA) solution in the well of a 96 well microtiter plate (Nunc F 96-MTP). […] After 10 min mixing of protease and inhibitor at room temperature, 30 μl of the mixture is transferred to a microtiter plate (Nunc U96 PP 0.5 ml) with 270 μl Model B detergent (described in Table 1) in the wells resulting in inhibitor 1 concentrations of 0-30 μM and inhibitor 2 concentrations of 0-6000 μM. Protease, inhibitor and detergent is mixed for 1 hour using magnetic bars for 1 hour at room temperature to reach equilibrium. Then 20 μl is transferred to a microtiter plate (Nunc F 96-MTP). 100 μl substrate solution is added and after 5 sec mixing absorbance at 405 nm is measured every 20 sec for 5 min on a SpectraMax Plus reader. Slope from linear regression of initial increase in absorbance at 405 nm is used for calculation of apparent binding constants. Ki values were calculated according to the “Calculation of Ki” method described in “Materials and Methods”
Having the Ki for each variant, it is possible to calculate the effect of a single mutation, if data are available for at least two variants that differ only by that mutation. In this case, the relative Ki for the mutation (Improvement Factor, or IF) is calculated:
A lower Ki is desirable, as a satisfactory inhibition can be obtained at a lower inhibitor concentration, so beneficial mutations have an IF>1.0

[3] = Inhibitor binding assay of SEQ ID NO 6 variants, Inhibitor 1, in Model B detergent; settings: in Model B relative to SEQ ID NO 6; relative Ki, IF>1.0 = lower Ki
Source text: as §1, §2, §3
(§4) Purified protease variants are pre-diluted to approximately 0.2 mg/ml in dilution buffer. The experimental conditions are described in Table 5 40 μl diluted protease is then mixed with 40 μl inhibitor solution Inhibitor 1 or 40 μl inhibitor 2 solution in the well of a 96 well microtiter plate (Nunc F 96-MTP). […] After 10 min mixing of protease and inhibitor at room temperature, 30 μl of the mixture is transferred to a microtiter plate (Nunc U96 PP 0.5 ml) with 270 μl Model B detergent (described in Table 1) in the wells resulting in inhibitor 1 concentrations of 0-30 μM and inhibitor 2 concentrations of 0-6000 μM. Protease, inhibitor and detergent is mixed for 1 hour using magnetic bars for 1 hour at room temperature to reach equilibrium. Then 20 μl is transferred to a microtiter plate (Nunc F 96-MTP). 100 μl substrate solution is added and after 5 sec mixing absorbance at 405 nm is measured every 20 sec for 5 min on a SpectraMax Plus reader. Slope from linear regression of initial increase in absorbance at 405 nm is used for calculation of apparent binding constants. Ki values were calculated according to the “Calculation of Ki” method described in “Materials and Methods”
(§5) Having the Ki for each variant, it is possible to calculate the effect of a single mutation, if data are available for at least two variants that differ only by that mutation. In this case, the relative Ki for the mutation (Improvement Factor, or IF) is calculated: […]

[4] = Inhibitor binding assay of SEQ ID NO 6 variants, Inhibitor 2, in Model B detergent; settings: in Model B relative to SEQ ID NO 6; relative Ki, IF>1.0 = lower Ki
Source text: as §1, §2, §3, §4, §5

inhibitor 1 binding constant improvement factors (IF) [1]: 2.27
inhibitor 2 binding constant improvement factors (IF) [2]: 1.39
B1: L184F: protease variant of SEQ ID NO 3 (protein, listed as Bacillus sp.)
chain: AVPSTQTPWGIKSIYNDQSITKTTGGSGIKVAVLDTGVYTSHLDLAGSAEQCKDFTQSNPLVDGSCTDRQGHGTHVAGTVLAHGGSNGQGVYGVAPQAKLWAYKVLGDNGSGYSDDIAAAIRHVADEASRTGSKVVINMSLGSSAKDSLIASAVDYAYGKGVLIVAAAGNSGSGSNTIGFPGGFVNAVAVAALENVQQNGTYRVADFSSRGNPATAGDYIIQERDIEVSAPGASVESTWYTGGYNTISGTSMATPHVAGLAAKIWSANTSLSHSQLRTELQNRAKVYDIKGGIGAGTGDDYASGFGYPRVK

inhibitor 2 binding constant improvement factors (IF) [2]: 1.53
B2: S111D: protease variant of SEQ ID NO 3 (protein, listed as Bacillus sp.)
chain: B1 chain with S111D, F184L

inhibitor 2 binding constant improvement factors (IF) [4]: 1.84
B5: A164S: protease variant of SEQ ID NO 6 (protein)
chain: AQSVPWGISRVQAPAAHNRGLTGSGVKVAVLDTGISTHPDLNIRGGASFVPGEPSTQDGNGHGTHVAGTIAALNNSIGVLGVAPSAELYAVKVLGASEGSGSVSSIAQGLEWAGNNGMHVANLSLGSPSPSATLEQAVNSATSRGVLVVAASGNSGAGSISYPSRYANAMAVGATDQNNNRASFSQYGAGLDIVAPGVNVQSTYPGSTYASLNGTSMATPHVAGAAALVKQKNPSWSNVQIRNHLKNTATSLGSTNLYGSGLVNAEAATR
modifications: Protease C

The remaining lines, values behind:

B3: N60F + S100I: protease variant of SEQ ID NO 6 (protein)
chain: B5 chain with N60F, S100I, S164A
modifications: Protease C
inhibitor 1 binding constant improvement factors (IF) [3]: 11.26

B4: S100I + L134V: protease variant of SEQ ID NO 6 (protein)
chain: B5 chain with S100I, L134V, S164A
modifications: Protease C
inhibitor 1 binding constant improvement factors (IF) [3]: 15.14
inhibitor 2 binding constant improvement factors (IF) [4]: 1.1

B6: S100I + Y166F: protease variant of SEQ ID NO 6 (protein)
chain: B5 chain with S100I, S164A, Y166F
modifications: Protease C
inhibitor 1 binding constant improvement factors (IF) [3]: 11.26
inhibitor 2 binding constant improvement factors (IF) [4]: 2.31
